Assay results taken from publication PMC6563020, “Protein Redox State Monitoring Studies of Thiol Reactivity” (Antioxidants, 2019).
Values joined by “and” are separate entries in the source; they are usually repeats but may differ in a detail not shown here. Equal entries are not always repeated.

Key:
[1] = biological target: the molecule itself; experiment: SDS-PAGE and immunoblot; untreated rat pulmonary artery smooth muscle cells; lysates on SDS-PAGE, immunoblot with Prx6 antibody; no Protein-SHifter
[2] = biological target: T1, Human peroxiredoxin 6 (Prx6) (human (endogenous in human pulmonary artery smooth muscle cells)), P30041; experiment: non-reducing SDS-PAGE and immunoblot; untreated (or PDGF-treated) human pulmonary artery smooth muscle cells; TCA-precipitated lysates labelled with Protein-SHifter Plus, SDS-PAGE without BME, immunoblot with Prx6 antibody; conditions: remark: other sources report otherwise
T1 chain: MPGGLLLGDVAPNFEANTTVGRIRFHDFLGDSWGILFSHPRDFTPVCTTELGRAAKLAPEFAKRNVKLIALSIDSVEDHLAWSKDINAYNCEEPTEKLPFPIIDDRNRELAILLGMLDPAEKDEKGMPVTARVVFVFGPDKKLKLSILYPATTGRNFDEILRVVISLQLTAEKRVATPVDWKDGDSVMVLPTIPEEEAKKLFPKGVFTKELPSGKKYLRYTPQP

[3] = biological target: T1, Human peroxiredoxin 6 (Prx6) (human …); experiment: SDS-PAGE and immunoblot; lysate proteins from untreated human pulmonary artery smooth muscle cells denatured with SDS and incubated with H2O2 (or BME) in a test tube for 15 min; Protein-SHifter Plus added, SDS-PAGE, immunoblot with Prx6 antibody; conditions: remark: other sources report otherwise
[4] = biological target: T1, Human peroxiredoxin 6 (Prx6) (human …); experiment: non-reducing SDS-PAGE and immunoblot; human pulmonary artery smooth muscle cells, with or without deferoxamine (50 uM, 30 min) and H2O2 (15 min); lysates on SDS-PAGE with or without 5% BME, immunoblot with Prx6 antibody; no Protein-SHifter; conditions: remark: other sources report otherwise
[5] = biological target: the molecule itself; experiment: non-reducing SDS-PAGE with Coomassie staining; purified recombinant CNBD, untreated or treated with H2O2 (1 mM) for 15 min; SDS-PAGE, Coomassie Blue; no Protein-SHifter

B1: Rat peroxiredoxin 6 (Prx6) (enzyme, UniProt O35244 1-224, looked up)
chain: MPGGLLLGDEAPNFEANTTIGHIRFHDFLGDSWGILFSHPRDFTPVCTTELGRAAKLAPEFAKRNVKLIALSIDSVEDHFAWSKDINAYNGAAPTEKLPFPIIDDKDRDLAILLGMLDPAEKDEKGMPVTARVVFIFGPDKKLKLSILYPATTGRNFDEILRVVDSLQLTASNPVATPVDWKKGESVMVLPTLPEEEAKQLFPKGVFTKELPSGKKYLRYTPQP
notes: Peroxiredoxin 6, rat, one cysteine only (catalytic Cys47); also called rat Prx6; source: endogenous, rat pulmonary artery smooth muscle cells (Cell Applications), in lysate
stoichiometry N [1]: 2

B2: Human peroxiredoxin 6 (Prx6), P30041 1-224 (enzyme)
chain: T1 chain
stoichiometry N [2]: 2 and 3
stoichiometry N [3]: 2
stoichiometry N [4]: 2

B3: Cyclic nucleotide-binding domain (CNBD) of human HCN4 (hHCN4) (domain or fragment, UniProt Q9Y3Q4 571-708, looked up)
chain: GELSEPLREEIINFNCRKLVASMPLFANADPNFVTSMLTKLRFEVFQPGDYIIREGTIGKKMYFIQHGVVSVLTKGNKETKLADGSYFGEICLLTRGRRTASVRADTYCRLYSLSVDNFNEVLEEYPMMRRAFETVAL
notes: two cysteines; 19 kDa; Subcloned into pETM11; the printed mass of 19 kDa is more than that of residues 571-708 alone, which may mean that the tag was kept; also called hHCN4 CNBD; CNBD domain of hHCN4 channels; source: E. coli BL21 (DE3), purified (Ni2+-NTA, size-exclusion chromatography)
stoichiometry N [5]: 2 and 3
